Test results reported in publication PMC6424596 (Current biology : CB, 2019).

Biological target: T1, Cdr2-flag (S. pombe, UniProt P87050 1-775)
T1 sequence (looked up): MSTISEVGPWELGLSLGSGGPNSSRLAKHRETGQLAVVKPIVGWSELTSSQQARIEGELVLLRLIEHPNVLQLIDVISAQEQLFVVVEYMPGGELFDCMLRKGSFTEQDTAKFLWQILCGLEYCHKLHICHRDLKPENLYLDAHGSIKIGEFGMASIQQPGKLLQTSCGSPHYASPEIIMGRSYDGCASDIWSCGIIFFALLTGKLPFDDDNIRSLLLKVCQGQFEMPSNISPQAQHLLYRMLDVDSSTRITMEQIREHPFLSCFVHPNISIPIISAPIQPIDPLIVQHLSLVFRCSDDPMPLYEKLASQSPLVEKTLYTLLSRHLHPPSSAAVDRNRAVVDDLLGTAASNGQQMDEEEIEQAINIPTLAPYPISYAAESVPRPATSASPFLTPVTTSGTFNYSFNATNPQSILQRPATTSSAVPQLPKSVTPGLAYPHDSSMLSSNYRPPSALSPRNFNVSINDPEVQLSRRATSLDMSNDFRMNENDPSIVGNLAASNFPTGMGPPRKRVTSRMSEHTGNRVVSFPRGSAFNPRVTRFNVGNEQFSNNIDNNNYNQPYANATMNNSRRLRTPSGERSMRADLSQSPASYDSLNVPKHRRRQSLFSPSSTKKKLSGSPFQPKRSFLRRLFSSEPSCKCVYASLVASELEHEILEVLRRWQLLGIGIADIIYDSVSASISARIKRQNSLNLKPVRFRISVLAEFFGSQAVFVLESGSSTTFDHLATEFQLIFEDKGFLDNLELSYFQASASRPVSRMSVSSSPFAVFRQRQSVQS
Assay: co-IP

B1: Mid1–9A-myc13 (natural protein, S. pombe, UniProt P78953 1-920, looked up)
chain: MKEQEFSYREAKDVSLDSKGLENSFLSSPNREKTPLFFEGNSNETSGYDQTKNFTHGDGDMSLGNLSELNVATDLLESLDLRSMYMHGYGHLDSSFSSQHSPDNRKRMSATSVFKRINSEEEGRIPALTYSAGTMNSTSSSTASLKGADIVADYETFNPDQNLAELSFDRSKSSRKRAVEVAEFSRAKTMSPLEYTVQHPYQSHNELSTNPARARAGAVPNLARIPADVKPVPPAHLSASSTVGPRILPSLPKDTTEDNPALERVETTASLDMDYKPLEPLAPIQEAPVEDTSEPFSSVPEATLDDSDISTESLRKKVLAKMEAKRISAGSSYASTLRKVYDFSELSLPTNGKDYDELYLQSSRNSEPEISTIINDSLQQENMDEDISATSIPKSQAAYGHGSVTYHEVPRYNLTSASVGYSISSQRGRIKASSTIDNLSAILSSEDLRHPAMQPVPGTKRTYANYCENEPNKSSQSLVSSESHNVEGWNYSETGTVGFYDPSAEISASIDELRQSTPVARDSELLSRAHAFDLNRLDLPSQDKSTSYEVPNGTENQSPRPVTSLGFVNETFFEEKPKAPLPLGRFYIHLNSILNISISEVHSPIKIIVNTPTQNMQLPWQAVNGNNRLDHDFAFHVDDNFKVSFMFLDIPIEDKSNGSKGVSATKDVSNGKPAETKSKARKFFDKLFNRRKKRKLNKAAAVENSKAKKSVVIKKVSGTATLNLGNVKDSCFGKAFNVEIPIISRGFLEAIPVKINSIGKRTLGNLTLTCLYIPELSVPEQELPFTLEQATMDLRHVRSNYLYNEGYLYRLEDSSIRRRFVVLRSKQLNFYAEKGGQYLDTFQLSKTVVSIPMVNFSEAVSNLGLVAGILATSVDRRHVQLFADSKKVCQKWLQVMNSRSFALDRGTEKLWLQEYVNFMA
fold co-immunoprecipitated against Mid1-myc13: ~2 fold
